Measured values reported in the nanobody polyreactivity screen of Harvey et al. (2022).

Test: yeast display, Sf9 membrane polyspecificity reagent, FACS + sequencing; frameworks hold sequencing errors
Outline: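 Galactose-induced (36–48 hours) yeast carrying a synthetic nanobody display library were exposed to 10% biotinylated, detergent-solubilized Sf9 membrane reagent at 4 °C for 1 hour. FACS followed streptavidin microbead enrichment, using low and high (top ~1%) gates for expression (anti-HA) and reagent binding (streptavidin). Colony PCR, MiSeq 2 × 250 sequencing and CDR-length filtering followed. Labels for polyreactivity reflect the gate of origin.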

| Sequence | polyreactivity (PSR sort gate) |
| --- | --- |
| QVQLVESGGGLVQAGGSLRLSCAASGRTFYTNAMGWSRQAPGKERELVAAISRGGGRTYYADSVKGRFTISRDNAKNTVYLQMNSLKPEDTAVYYCAASPYQGQGREYYYWGQGTQVTVSS | high polyreactivity |
| QVQLVESGGGLVQAGGSLRLSCAASGRTFYTNTMGWYRPAPGKERELVAAISYSGSSTYYADSVKGRFTISRDNAKNTVYLQMNSLKPEDTAVYYCNAVRYYRYYYWGQGTQVTVSS | low polyreactivity |
| QVQLVESGGGLVQAGGSLRLSCAASGRTFYTVYAMGWYRQAPGKERELVAAITRSGGSTYYADSVKGRFTISRDNAKNTLYLQMNSLKPEDTAVYYCAAAPPLAGLGGYYWGQGTQVTVSS | high polyreactivity |
| QVQLVESGGGLVQAGGSLRLSCAASGRTFYTYTMGWYRQAPRKEREFVAAISSSGSSTYYADSVKGRFTISRDNAKNTVYLQMNSLKPEDTAVYYCAATSYSYPGYFRYDYWGQGTQVTVSS | high polyreactivity |
| QVQLVESGGGLVQAGGSLRLSCAASGRTFYVKVMGWYRQEPGKERELVAVISRSDGSTTYADSVKGRFTISRDNAKNTVYLQMNSLKPEDTAVYYCNTDLPLGSGVLPDWELFDYWGQGTQVTVSS | low polyreactivity |
| QVQLVESGGGLVQAGGSLRLSCAASGRTFYVNAMGGYRQAPGKERELVARITSGGSTYYADSVKGRFTISRDNAKNTVYLQMNSLKPEDTAVYYCAKKYIGYQEWIHSTRRYDYWGQGTQVTGSS | low polyreactivity |
| QVQLVESGGGLVQAGGSLRLSCAASGRTFYVNTMGWYRQAPGKERELVASITWSDGSTYYADSVKGRFTISRDNAKNTVYLQMNSLKPDDSAVYYCAASGRFIVNAYRSWGRRRYEYWGQGTQVTVSS | high polyreactivity |
| QVQLVESGGGLVQAGGSLRLSCAASGRTFYVYAMGWYRQAPGKERELVAAITFSGGSTYYADSVKGRFTISRDNAKNPVYLQMNSLKPEDTAVYYCNRRSYVPDRFRHDSSVIYDYWGQGTQVTVSS | low polyreactivity |
| QVQLVESGGGLVQAGGSLRLSCAASGRTFYVYAMGWYRQAPGKERELVATISRGGSTTYADSVKGRFTISRDNAKNTVYLQMNSLKPEDTAVYYCATELLGGRRTVAYYWGQGTQVTVSS | low polyreactivity |
| QVQLVESGGGLVQAGGSLRLSCAASGRTFYVYAMGWYRQAPGNERELVATISRSGGGTYYADSVKGRFTISRDNAKNTVYLQMNSLTPEDTAVYYCAAKPYRRDYGYWGQGTQVTVSS | high polyreactivity |
| QVQLVESGGGLVQAGGSLRLSCAASGRTFYVYNMGCYRQAPGKERELVAGISYSGGSTYYADSVKGRFTISRDNAKNTVYLQMNSLKPEDTAVYYSNAELYFPYFDGKTRLGGYWGLGTQVTVSS | low polyreactivity |
| QVQLVESGGGLVQAGGSLRLSCAASGRTFYWNAMGWYRQAPGKERELVAAISDGGGSTYYADSVKGRFTISRDNAKNTVYLHMNSLKPEDTAVYYCNTPDNQDKPYPGYDYWGQGTQVTVSS | low polyreactivity |
| QVQLVESGGGLVQAGGSLRLSCAASGRTFYWNAMGWYRQAPGKERELVASINGGGSTYYADSVKGRFTISRDNAKNTVYLQMNSLKPEDTAVYYCNVRYYFPRYQQRYQLNEYYYWGQGTQVTVSS | low polyreactivity |
| QVQLVESGGGLVQAGGSLRLSCAASGRTFYYNAMGWYRQAPGKERELVAAISYRGGSTYYADSVKGRFTISRDNAKNTVYLQMNSLKPEDTAVYYCAKYPHPLKYPGYPSEFDYWGQGTQVTVSS | low polyreactivity |
| QVQLVESGGGLVQAGGSLRLSCAASGRTFYYNAMGWYRQAPGKERELVAAITYSGGSTYYADSVKGRFTISRDNAKNTVYLQMNSLKPEDTAVYYCAADVYRPAGNWEHYYWGQGNQVTVSS | low polyreactivity |
| QVQLVESGGGLVQAGGSLRLSCAASGRTFYYNAMGWYRQAPGKERELVATITSGGSTNYADSVKGRFTISRDYAKNTVYLQMNSLKPEDTAVDYCATTRYRTYADVNSRYGYWGQGTQVTVSS | low polyreactivity |
| QVQLVESGGGLVQAGGSLRLSCAASGRTFYYNGMGWYRQAPGKERELVATITNGGSTNYADSVKGRFTISRDNAKNTVYLQMNSLKPEDTAVYYCAKTLASDCYDYWGQGTQVTVSS | low polyreactivity |
| QVQLVESGGGLVQAGGSLRLSCAASGRTFYYYAKGWYRQAPGKERELVARISRCGSTNYADSVKGRFTISRDNAKNTVYLQMISLKPEDSAVYYCAAGWRGGRYRYFAYDYWGQGTQVTVSS | high polyreactivity |
| QVQLVESGGGLVQAGGSLRLSCAASGRTFYYYAMGGYRQAPGKERELVAAIRGGGGSTYADSVKGRFTISRDNAKNTVYLQMNSLKPEDTAVYYCNVVRTGRYPGFLTFDYWGQGTQVTVSS | high polyreactivity |
| QVQLVESGGGLVQAGGSLRLSCAASGRTFYYYAMGWHRQAPGKERELVARIRSGGSTNYADSVKGRFTISRDNAKNTVYLQMNSLKPEDTAVYYCAAVRPPTPSRRREDYWGQGTQVTVSS | low polyreactivity |
| QVQLVESGGGLVQAGGSLRLSCAASGRTFYYYAMGWYRQAPGKEREFVAAIRFSGGNTYYADSVKGRFTISRDNAKNTVYLQMNSLKPEDTAVYYCAARRLLYKYWTGGPYDYWGQGTQVTVSS | high polyreactivity |
| QVQLVESGGGLVQAGGSLRLSCAASGRTFYYYAMGWYRQAPGKERELVAAIRWSTGSTYYADSVKGRFTISRDNAKNTVYLQMNSLKPEDTAVYYCAADTWYIQWGYYWGQGTQVTVSS | low polyreactivity |
| QVQLVESGGGLVQAGGSLRLSCAASGRTFYYYAMGWYRQAPGKERELVAAISSSTGRTYYADSVKGRFTISRDNAKNTVYLQMNSLKPEDTAVYYCAKYRVFGYQFDYWGQGTQVTVSS | high polyreactivity |
| QVQLVESGGGLVQAGGSLRLSCAASGRTFYYYAMGWYRQAPGKERELVAAITSTGGSTYYADSVKGRFTISRDNAKNTVYLQMNSLKPDDTAVYYCAADQVWGYDSWGQGPQVTVSS | low polyreactivity |
| QVQLVESGGGLVQAGGSLRLSCAASGRTFYYYAMGWYRQAPGKERELVASITSGDGTYYADSVKGRFTISRDNAKNTVYLQMNSLKPEDTAVYYCAADIFYKFSYYPWYPYRDYYYSGQGTQVTVSS | low polyreactivity |
| QVQLVESGGGLVQAGGSLRLSCAASGRTFYYYAMGWYRQEPGKERELVAAISWSGGRTYYADSVKGRFTISRDNAKNTVYLQMNSLNPEDTAVYYCNAEPPRGYTVSSGGEMDYWGQGTQVTVSS | low polyreactivity |
| QVQLVESGGGLVQAGGSLRLSCAASGRTFYYYAMVWYRQAPGKERELVAAINSGGSTNYADSVKGRFTISRDNAKNTVYLQMNSLKPEDTAVYYCAKRAYTTVYGPVNYGFNYWGQGTQVTVSS | low polyreactivity |
| QVQLVESGGGLVQAGGSLRLSCAASGRTFYYYARGWYRQAPGKERELVAAINTRGVSTYYEDSVKGRFTISRDNAKNTVYLQMNSLKPEDTAVYYCNKGFSYGRDYWGQGTQVTVSS | high polyreactivity |
| QVQLVESGGGLVQAGGSLRLSCAASGRTFYYYTMGWYRQAPGKERELVAAITHGGSTYYADSVKGRFTISRDNAKNTVYLQMNSLKPEDTAVYYCNAVYHYPYEYWGQGTQVTVSS | high polyreactivity |
| QVQLVESGGGLVQAGGSLRLSCAASGRTFYYYTMGWYRQAPGQERELVAAISVSGGTTYYADSVKGRFTISRDNAKYSVYLQMNSLKPDDTAVYYCAAGDGWGRRYYWGQGTQVNVSS | high polyreactivity |
